# Test results as given in patent publication US7098025B1, “Human peroxisome proliferator activated receptor gamma (pparγ) gene regulatory sequences and uses therefor” (Ligand Pharmaceuticals Incorporated, priority 1997, dated 2006).
# B1: ADD-1: basic helix-loop-helix leucine zipper transcription factor, expressed from a cotransfected, electroporated or retroviral vector (protein, UniProt P56720 1-1134, looked up)
# Sterol regulatory …: MDELPFGEAALEQALAEVCEMDAALLTDIEDMLQLINNQDSDFPGLFDAPYAGGETGDTGPSSPGASSPESFSSPASLGSSLEAFLGGPKVTPAPLSPPPSAPTAVKMYPSVPPFSPGPGIKEEPVPLTILQPPAPQPSPGTLLPPSFPPPPVQLSPAPVLGYSSLPSGFSGTLPGNTQQTPSSLPLGSTPGISPTPLHTQVQSSAAQQPPPASAAPRMSTVASQIQQVPVVLQPHFIKADSLLLTAVKTDTGATMKTAGINTLAPGTAVQAGPLQTLVSGGTILATVPLVVDTDKLPIHRLAAGGKALGSAQSRGEKRTAHNAIEKRYRSSINDKIVELKDLVVGTEAKLNKSAVLRKAIDYIRFLQHSNQKLKQENLTLRSAHKSKSLKDLVSACGSGGGTDVSMEGMKPEVVETLTPPPSDAGSPSQSSPLSLGSRGSSSGGSDSEPDSPAFEDNQVKAQRLPSHSRGMLDRSRLALCVLVFLCLTCNPLASLFGWGILTPSDASGVHRSSGRSMLEAESRDGSNWTQWLLPPLVWLANGLLVLACLALLFVYGEPVTRPHSGPAVHFWRHRKQADLDLARGDFAQAAQQLWLALQALGRPLPTSNLDLACSLLWNLVRHLLQRLWVGRWLAGQAGGLQRDYRLRKDARASARDAAVVYHKLHQLHAMGKYTGGHLVASNLALSALNLAECAGDAISMATLAEIYVAAALRVKTSLPRALHFLTRFFLSSARQACLAQSGAVPLAMQWLCHPVGHRFFVDGDWAVHGAPQESLYSVAGNPVDPLAQVTRLFCEHLLERALNCIAQPSPGAADGDREFSDALGYLQLLNSCSDAVGAPACSFSVSSSMATTTGTDPVAKWWASLTAVVIHWLRRDEEAAERLYPLVEHIPQVLQETERPLPRAALYSFKAARALLDHRKVESSPASLAICEKASGYLRDSLASTSTASSIDKAMQLLLCDLLLVARTSLWRRQQSAASAQGAHGTSNGPQASALELRGFQHDLSSLRRLAQSFRPAMRRVFLHEATARLMAGASPARTHQLLDRSLRRRAGSSGKGGAAAELEPRPTWREHTEALLLASCYLPPAFLSAPGQRVSMLAEAARTVEKLGDHRLLLDCQQMLLRLGGGTTVTSS
# Tests used:
# human PPARγ2 promoter = assay: pGL3γ2p1000 luciferase reporter cotransfection; type: cell-based; settings: expression vector cotransfected
# Text: (§1) To assess whether ADD-1 regulates the expression of the hPPARγ3 mRNA, we cotransfected either an expression plasmid coding for ADD-1 together with the pGL3γ3p800 luciferase reporter vector. When Hep G2 cells were cotransfected with the ADD-1 expression vector, the luciferase activity was increased at least 4-fold relative to the basal activity of the hPPARγ3 promoter.
# A 1-kb fragment of PAC clone 8856 was isolated by PCR using the oligonucleotides LF-35 (binding antisense in the PPARγ2 5′-UTR) and the oligonucleotide LF-58 (binding sense at position −1000 of the PPARγ2), was sequenced, and was inserted into EcoRV site of pBluescript (Stratagene, La Jolla, Calif.). After digestion of plasmid pBS γ2p1000 with SmaI and KpnI, the insert was cloned into the reporter vector pGL3 (Promega), creating the expression vector pGL3γ2p1000.
# (§2) Site-directed mutagenesis of the E-box in the PPARγ3 promoter was performed by splicing overlapping ends polymerase chain reaction (Ho, et al., Gene 77:51–59 (1989)), using the oligo pairs LF-106/LF-60 and LF-107/LF-68, to generate the plasmid pGL3γ3p800-E-boxmut. […]
# human PPARγ1 promoter = assay: pGL3γ1p3000 luciferase reporter cotransfection; type: cell-based; settings: expression vector cotransfected
# Text: as §1
# To isolate the PPARγ1 promoter, an 8-kb EcoRI fragment, which hybridized with the oligonucleotide LF-2 (corresponding to the 5′-UTR of γ1), was cloned into pBluescript. […] To test for promoter activity, a SacI/XhoI digestion of this clone containing the 3-kb promoter was inserted in the same sites of pGL3, resulting in the final vector pGL3 γ1p3000. The pSG5-haPPARγ (39) and pMSV-C/EBPβ (10) expression vectors were described elsewhere. Transfections were carried out in 60-mm plates using standard calcium phosphate precipitation techniques (for 3T3-L1, CV-1, and COS cells) (22). Luciferase and […] assays were carried out exactly as described previously (22).
# as §2
# hPPARγ3 promoter = assay: pGL3γ3p800 luciferase reporter cotransfection in Hep G2 cells; type: cell-based, human; settings: E-box mutated
# Text: as §1
# A 800 bp fragment of the PAC clone 8856 was isolated by PCR using the amplimers LF-60 (binding to the antisense strand in exon A2) and LF-68 (binding sense at position −800 of the PPARγ3 promoter). This PCR fragment was sequenced, inserted into the EcoRV site of pBluescript SK+ (Stratagene, La Jolla, USA), and after SpeI and KpnI restriction subcloned into pGL3 (Promega, Madison, USA), creating the reporter vector pGL3γ3p800.
# as §2
# PPARγ mRNA [1] = assay: RNase protection assay of endogenous PPARγ mRNA in electroporated Hep G2 cells; type: cell-based, human; settings: Hep G2 cells electroporated with expression vector; 48 hr after transfection
# Text: To investigate whether ADD-1/SREBP-1 expression was sufficient to regulate the expression of the endogeneous PPARγ3 mRNA, Hep G2 cells were electroporated with vectors expressing either SREBP-1a (Yokoyama et al., Cell 75:187–197 (1993)) or ADD-1 (Tontonoz et al., Mol. Cell. Biol. 13:4753–4759 (1993)). RNA was extracted 48 hr after transfection and analysed by RNase protection assay for the presence of PPARγ mRNA.
# The absolute mRNA concentration of the differentially spliced PPARγ variants was measured by RNase protection assay exactly as described (Lemberger et al., J. Biol. Chem. 271:1764–1769 (1995)). The full lenght PPARγ2 coding region plus 33 bp of the 5′ UTR was amplified from human adipose tissue RNA by RT-PCR with the primer pair LF-3/LF-36 and was inserted in the inverted orientation (3′ to 5′ in front of the T7 promoter) into the EcoRI site of the expression vector pSG5 (Stratagene, La Jolla, Calif.). The resulting plasmid pSG5-hPPARγ2-inv was digested with EcoRV and religated, yielding the vector pSG5-hPPARγ2-RPA, which was used as a template for the synthesis of the anti-sense RNA probe, to measure the relative amounts of PPARγ2 relative to PPARγ1 and 3 mRNA. […]
# PPARγ mRNA [2] = assay: RNase protection assay of PPARγ mRNA in retrovirally infected 3T3-L1 cells; type: cell-based, mouse; settings: 3T3-L1 preadipocytes and adipocytes; retroviral ectopic expression
# Description: To study the effects of ADD-1 on PPARγ expression in more detail, either an empty retroviral vector pBabe or the same vector encoding for full length ADD-1 or the superactive ADD-1-403 form were introduced into 3T3-L1 cells via retroviral infection. […] Infected cells were then cultured to confluence and consecutively treated with differentiation medium. Total RNA was isolated at confluence (preadipocytes) and at day 6 after confluence (adipocytes) from the cells expressing either the empty pBabe vector or the same vector encoding for ADD-1 or ADD-1-403, a truncated form of ADD-1, equivalent to the proteolytically activated protein, which lacks the membrane anchoring domain. […] The effect of retroviral infection was more pronounced in 3T3-L1 adipocytes relative to preadipocytes.
# Control cells received vehicle only.
# The absolute mRNA concentration of the differentially spliced PPARγ variants was measured by RNase protection assay exactly as described (Lemberger et al., J. Biol. Chem. 271:1764–1769 (1995)). The full lenght PPARγ2 coding region plus 33 bp of the 5′ UTR was amplified from human adipose tissue RNA by RT-PCR with the primer pair LF-3/LF-36 and was inserted in the inverted orientation (3′ to 5′ in front of the T7 promoter) into the EcoRI site of the expression vector pSG5 (Stratagene, La Jolla, Calif.). […]
molecule,measurement,setting,value
B1,activity of pGL3γ2p1000 reporter construct,human PPARγ2 promoter,unaffected
same,activity of pGL3γ1p3000 reporter construct,human PPARγ1 promoter,unaffected
same,stimulation of mutated pGL3γ3p800-E-boxmut reporter vector,hPPARγ3 promoter,unable to stimulate
same,PPARγ1 mRNA increase,PPARγ mRNA [1],approximately 3 fold
same,expression of PPARγ mRNA,PPARγ mRNA [2],induced
